From patent US20240327530A1 (ICHNOS SCIENCES, published 2024)

T1: gg-hs-hs IL-1RAP
T1 construct: chicken/human IL-1RAP chimera; also called IL-1RAP-ECD(ggD1(S139-P246)-hsD2(V132-V233)-hsD3(V234-E359))-Avi-His; gg-hs-hs-IL-1RAP-ECD-avi-his
T1 single chain: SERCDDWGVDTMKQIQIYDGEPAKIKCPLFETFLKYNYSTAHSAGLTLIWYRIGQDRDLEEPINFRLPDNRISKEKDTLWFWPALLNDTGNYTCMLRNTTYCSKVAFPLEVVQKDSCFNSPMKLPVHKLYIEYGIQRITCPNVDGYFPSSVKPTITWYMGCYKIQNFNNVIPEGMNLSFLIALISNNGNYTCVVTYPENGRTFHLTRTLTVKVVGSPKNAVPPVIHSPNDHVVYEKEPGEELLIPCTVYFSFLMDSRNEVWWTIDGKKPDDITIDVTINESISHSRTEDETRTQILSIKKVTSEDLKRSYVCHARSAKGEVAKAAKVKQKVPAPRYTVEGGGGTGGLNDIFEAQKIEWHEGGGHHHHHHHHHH

T2: Recombinant mouse IL-1RAP Fc fusion protein (Sino Biologicals, catalog no. 52657-M02H) (mouse, UniProt Q61730 21-350)
T2 construct: Bought; not shown: Fc part of the bought fusion protein
T2 sequence: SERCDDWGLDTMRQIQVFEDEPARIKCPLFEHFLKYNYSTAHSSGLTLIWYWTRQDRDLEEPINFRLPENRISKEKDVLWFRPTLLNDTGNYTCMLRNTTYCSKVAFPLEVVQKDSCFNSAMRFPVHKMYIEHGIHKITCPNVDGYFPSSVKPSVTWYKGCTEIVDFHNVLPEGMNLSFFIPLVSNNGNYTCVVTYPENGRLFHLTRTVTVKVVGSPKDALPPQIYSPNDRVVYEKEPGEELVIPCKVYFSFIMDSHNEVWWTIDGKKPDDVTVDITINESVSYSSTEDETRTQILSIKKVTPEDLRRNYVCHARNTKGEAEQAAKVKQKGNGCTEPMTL


What was measured:
gg-hs-hs IL-1RAP = molecular target: T1, gg-hs-hs IL-1RAP; assay: SPR, IgG1 LALA captured on anti-human IgG Fc CM5 chip, chimera injected at 50 nM
Procedure: Human-chicken IL-1RAP chimeras were injected over immobilized anti-IL-1RAP IgG1 LALA at 50 nM in HBS-EP+ buffer followed by a dissociation in HBS-EP+ buffer. “hs” stands for a human domain and “gg” stands for a chicken domain. Human-chicken chimeras are then described by their respective human or chicken domains in successive order, e.g. hs-gg-gg IL-1RAP stands for IL-1RAP with human domain 1, chicken domain 2 and chicken domain 3. Plots show data expressed as number of resonance units (abbreviated RU; Y axis) vs. time (X axis).
Domain of IL-1RAP targeted by IgG1 LALA clones was identified by SPR binding assay. Around 150 RU of IgG1 LALA was immobilized on the fc2 of a Series S CM5 sensor chip previously coated with anti-human IgG Fc (BIACORE™, GE […]®, catalog no. BR100839) using a commercial amine coupling kit (BIACORE™, GE […]®, catalog no. BR100050). Human IL-1RAP-avi-his, chicken IL-1RAP-avi-his, chimeric protein comprising chicken domain 1 of IL-RAP fused to human domain 2 and 3 of IL-1RAP (gg-hs-hs-IL-1RAP-ECD-avi-his) and chimeric protein comprising chicken domain 1 and 2 of IL-1RAP fused to human domain 3 of IL-1RAP (gg-gg-hs-IL-1RAP-avi-his) were injected individually at 50 nM in HBS-EP+ for 3 min over fc1 and fc2 (fc1 being used as reference), followed by dissociation in HBS-EP+ buffer for 5 min. […]

[1] = molecular target: T2, Recombinant mouse IL-1RAP Fc fusion …; assay: SPR, mouse IL-1RAP-Fc captured, Fab as analyte (0.04 to 5 nM)
Procedure: Affinities of the Fab fragments to mouse IL-1RAP were measured as described in Example 1, with the following modifications. Measurements were performed on Series S CM5 sensor chips (BIACORE™ T200, BIACORE™, GE […]®, catalog no. BR100530) coupled with anti-human IgG Fc (BIACORE™, GE […]®, catalog no. BR100839) using a commercial amine coupling kit (BIACORE™, GE […]®, catalog no. BR100050). SPR measurements were performed with commercially available recombinant mouse IL-1RAP Fc fusion protein (Sino Biologicals, catalog no. 52657-M02H). The affinities to mouse IL-1RAP were assessed by immobilizing mouse IL-1RAP-Fc and using Fab fragments as analyte. Around 60 RUs of mouse IL-1RAP Fc fusion protein were captured on fc2 of a Series S CM5 sensor chip coupled with anti-human IgG Fc. Fab fragments were injected in single cycle kinetic at different concentrations ranging from 0.04 to 5 nM, in HBS-EP+ buffer (BIACORE™, GE […]®, catalog no. BR100669) at a flow rate of 30 μl/min for 3 min on fc1 and fc2 (fc1 being used as reference). Dissociation was monitored for 10 min.

Binder | binding result (gg-hs-hs IL-1RAP) | Kd [1] [nM]
anti-IL-1RAP-C8 IgG1 LALA (antibody, V domains shown, Human IgG1 with L234A/L235A (EU)) VH: QVQLVQSGAEVKKPGSSVKVSCKASGGQFSEYAIQWVRQAPGQGLEWMGYIIPLHGQVDYAQKFQGRVTITADESTSTAYMELSSLRSEDTAVYYCARGQTLYDSGRQFDIWGQGTLVTVSS VL: not shown | binds | 
anti-IL-1RAP-C3 IgG1 LALA (antibody, V domains shown, Human IgG1 with L234A/L235A (EU)) VH: EVQLLESGGGLVQPGGSLRLSCAASGFTFRDYAMGWVRQAPGKGLEWVSAISYDGEGTLYADSVKGRFTISRDNSKNTLYLQMNSLRAEDTAVYYCARFRYYTAFDYWGQGTLVTVSS VL: not shown | binds | 
Anti-IL-1RAP-C3-MP02-F6 Fab (Fab, V domains shown) VH: EVQLLESGGGLVQPGGSLRLSCAASGFTFPDYPLGWVRQAPGKGLEWVSAISYDGEGTLYADSVKGRFTISRDNSKNTLYLQMNSLRAEDTAVYYCARFRYYTAFDYWGQGTLVTVSS VL: not shown |  | 0.26
Anti-IL-1RAP-C3-MP01-F5 Fab (Fab, V domains shown) VH: EVQLLESGGGLVQPGGSLRLSCAASGFPLSNYGMSWVRQAPGKGLEWVSAISYDGEGTLYADSVKGRFTISRDNSKNTLYLQMNSLRAEDTAVYYCARFRYYTAFDYWGQGTLVTVSS VL: not shown |  | 0.28
Anti-IL-1RAP-C3-MP01-A2 Fab (Fab, V domains shown) VH: EVQLLESGGGLVQPGGSLRLSCAASGFTFAEYAMNWVRQAPGKGLEWVSAISYDGEGTLYADSVKGRFTISRDNSKNTLYLQMNSLRAEDTAVYYCARFRYYTAFDYWGQGTLVTVSS VL: not shown |  | 0.68
Anti-IL-1RAP-C3-MP02-B8 Fab (Fab, V domains shown) VH: EVQLLESGGGLVQPGGSLRLSCAASGFTFEHSSAGWVRQAPGKGLEWVSAISYDGEGTLYADSVKGRFTISRDNSKNTLYLQMNSLRAEDTAVYYCARFRYYTAFDYWGQGTLVTVSS VL: not shown |  | 0.49
Anti-IL-1RAP-C3-MP01-D2 Fab (Fab, V domains shown) VH: EVQLLESGGGLVQPGGSLRLSCAASGFTFSQFGMTWVRQAPGKGLEWVSAISYDGEGTLYADSVKGRFTISRDNSKNTLYLQMNSLRAEDTAVYYCARFRYYTAFDYWGQGTLVTVSS VL: not shown |  | 0.22
Anti-IL-1RAP-C3-MP02-G2 Fab (Fab, V domains shown) VH: EVQLLESGGGLVQPGGSLRLSCAASGFTYDVAPMGWVRQAPGKGLEWVSAISYDGEGTLYADSVKGRFTISRDNSKNTLYLQMNSLRAEDTAVYYCARFRYYTAFDYWGQGTLVTVSS VL: not shown |  | 0.32
Anti-IL-1RAP-C3-MP01-B5 Fab (Fab, V domains shown) VH: EVQLLESGGGLVQPGGSLRLSCAASGFIFSTYGMGWVRQAPGKGLEWVSAISYDGEGTLYADSVKGRFTISRDNSKNTLYLQMNSLRAEDTAVYYCARFRYYTAFDYWGQGTLVTVSS VL: not shown |  | 0.21
Anti-IL-1RAP-C3-MP01-G10 Fab (Fab, V domains shown) VH: EVQLLESGGGLVQPGGSLRLSCAASGFTFSHYGMSWVRQAPGKGLEWVSAISYDGEGTLYADSVKGRFTISRDNSKNTLYLQMNSLRAEDTAVYYCARFRYYTAFDYWGQGTLVTVSS VL: not shown |  | 0.21
Anti-IL-1RAP-C3-MP01-A3 Fab (Fab, V domains shown, also called Fab clone anti-IL-1RAP-C3-A3) VH: EVQLLESGGGLVQPGGSLRLSCAASGFIFSHYGMSWVRQAPGKGLEWVSAISYDGEGTLYADSVKGRFTISRDNSKNTLYLQMNSLRAEDTAVYYCARFRYYTAFDYWGQGTLVTVSS VL: not shown |  | 0.14
Anti-IL-1RAP-C3-MP01-B7 Fab (Fab, V domains shown) VH: EVQLLESGGGLVQPGGSLRLSCAASGFTLSGFSMSWVRQAPGKGLEWVSAISYDGEGTLYADSVKGRFTISRDNSKNTLYLQMNSLRAEDTAVYYCARFRYYTAFDYWGQGTLVTVSS VL: not shown |  | 0.17
